Measured values taken from patent US20240052064A1 (Bristol-Myers Squibb, published 2024).

T1: BCMA (human, UniProt Q02223 1-54, limits assumed)
T1 construct: also called B cell maturation antigen; TNFRSF17
T1 sequence (looked up): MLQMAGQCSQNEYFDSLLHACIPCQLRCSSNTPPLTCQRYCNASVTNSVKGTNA

T2: BCMA on cells (JEKO cells, plasmablasts) (human, UniProt Q02223 1-184)
T2 sequence (looked up): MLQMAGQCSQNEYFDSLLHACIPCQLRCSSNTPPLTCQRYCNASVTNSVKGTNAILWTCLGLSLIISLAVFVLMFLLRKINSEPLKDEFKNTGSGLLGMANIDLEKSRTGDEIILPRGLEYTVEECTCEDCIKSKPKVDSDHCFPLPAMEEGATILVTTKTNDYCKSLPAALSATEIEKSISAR

T3: Human BCMA, TPP208 (human, UniProt Q02223 1-54, limits assumed)
T3 construct: also called Antigen 1
T3 sequence (looked up): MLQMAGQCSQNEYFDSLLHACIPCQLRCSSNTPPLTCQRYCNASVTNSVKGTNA


Experiments:
BCMA = target: T1, BCMA
[1] = target: T2, BCMA on cells (JEKO cells, plasmablasts); assay: cell-based or functional assay
[2] = target: T2, BCMA on cells (JEKO cells, plasmablasts); assay: cell-based or functional assay; remark: listed apart in the source
[3] = target: T2, BCMA on cells (JEKO cells, plasmablasts); assay: cell-based or functional assay; remark: listed apart in the source
Human BCMA, TPP208 [4] = target: T3, Human BCMA, TPP208; assay: SPR (Biacore T200), single-cycle kinetics, antibody captured on anti-human IgG, antigen injected; sensorgram of sample stored at pH 4, 40 C compared with the non-stressed standard
Experimental: (§1) SPR experiments were performed using a Biacore T200 system (GE Healthcare, Uppsala, Sweden) with analysis and sample compartment temperatures set at 25° C. and 7° C. respectively.
(§2) Anti-Human IgG (from anti-human IgG Capture Kit) was amine coupled to the surface of a CM5 chip according to the manufacturer's instructions. Molecule bispecific antibodies diluted to 1 μg/mL in running buffer were captured on the chip surface in a 60 s injection. Following the single-cycle kinetics procedure, antigen was next injected five times (30 s per injection) at incrementally increasing concentrations at a flow rate of 30 μL/min. Antigen concentrations ranged from 0.08 to 50 nM for BCMA and between 12.7 to 1000 nM for CD3. A 300 s dissociation time was added after the last antigen injection. Following each experiment, all flow cells were regenerated using a 30 s injection of 3M MgCl₂.
(§3) Prior to analysis, data were double referenced by first subtracting data from a reference flow cell and then subtracting a blank cycle where buffer was injected instead of antigen. The sensorgram comparison analysis was implemented using a Biacore T200 (software version 3.0). All data were normalized with respect to the response where 100% reflects the maximum binding obtained during injection and 0% reflects the baseline. Average and ±3 standard deviation (SD) sensorgrams were calculated from ten or more independent sensorgrams of each molecule's non-stressed material (standard). For quantitation of binding similarities of the stressed samples against the corresponding non-stressed standard, sample sensorgrams were co-evaluated with the sensorgrams of the standard. The degree of similarity was calculated based on how many sample data points fell inside or outside the ±3 standard deviation limits according to Equation 2, where SSQ is the sum of squares (Karlsson, R, Pol, E., and Frostell, A. (2016); Analytical Biochemistry 502, 53-63).

Human CD3ED, TPP401 [5] = target: T4, Human CD3ED, TPP401 (human, UniProt P07766 23-126; P04234 22-105); assay: as above
T4 construct: 'CD3ED' is read here as the CD3 epsilon/delta pair; also called Antigen 2
T4 sequence (P07766 23-126, chain 1 of 2): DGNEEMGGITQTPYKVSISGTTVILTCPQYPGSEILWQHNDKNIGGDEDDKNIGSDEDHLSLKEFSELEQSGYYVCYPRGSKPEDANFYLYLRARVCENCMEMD
T4 sequence (P04234 22-105, chain 2 of 2): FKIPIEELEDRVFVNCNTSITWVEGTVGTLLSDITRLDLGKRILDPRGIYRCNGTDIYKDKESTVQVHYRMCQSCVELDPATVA
Experimental: as §1, §2, §3

Human BCMA, TPP208 [6] = target: T3, Human BCMA, TPP208; assay: SPR (Biacore T200), single-cycle kinetics, antibody captured on anti-human IgG, antigen injected; sensorgram of sample stored at pH 6, 40 C compared with the non-stressed standard
Experimental: as §1, §2, §3

Human CD3ED, TPP401 [7] = target: T4, Human CD3ED, TPP401; assay: as above
Experimental: as §1, §2, §3

Human BCMA, TPP208 [8] = target: T3, Human BCMA, TPP208; assay: SPR (Biacore T200), single-cycle kinetics, antibody captured on anti-human IgG, antigen injected; sensorgram of sample stored at pH 8, 40 C compared with the non-stressed standard
Experimental: as §1, §2, §3

Human CD3ED, TPP401 [9] = target: T4, Human CD3ED, TPP401; assay: as above
Experimental: as §1, §2, §3

Human BCMA, TPP208 [10] = target: T3, Human BCMA, TPP208; assay: SPR (Biacore T200), single-cycle kinetics, antibody captured on anti-human IgG, antigen injected; sensorgram of sample stored at pH 6 with tert-butyl peroxide, 40 C compared with the non-stressed standard
Experimental: as §1, §2, §3

Human CD3ED, TPP401 [11] = target: T4, Human CD3ED, TPP401; assay: as above
Experimental: as §1, §2, §3

[12] = target: T2, BCMA on cells (JEKO cells, plasmablasts); assay: cell-based or functional assay; remark: listed apart in the source
[13] = target: T2, BCMA on cells (JEKO cells, plasmablasts); assay: cell-based or functional assay; remark: listed apart in the source

Row | Binder | Kd (BCMA) [pM] | EC50 for JEKO cell killing (nM), T cell-mediated, annexin V, 20 h, T:E 1:2 [1] [nM] | EC50 for BM plasmablast killing (nM), bone marrow mononuclear cells, 24 h [2] [nM] | EC50 PB killing (nM), AAV-1 (n = 1) [3] [nM] | pH 4 SPR % similarity-BCMA (Human BCMA, TPP208 [4]) [%] | pH 4 SPR % similarity-CD3 (Human CD3ED, TPP401 [5]) [%] | pH 6 SPR % similarity-BCMA (Human BCMA, TPP208 [6]) [%] | pH 6 SPR % similarity-CD3 (Human CD3ED, TPP401 [7]) [%] | pH 8 SPR % similarity-BCMA (Human BCMA, TPP208 [8]) [%] | pH 8 SPR % similarity-CD3 (Human CD3ED, TPP401 [9]) [%] | pH 6-TBP SPR % similarity-BCMA (Human BCMA, TPP208 [10]) [%] | pH 6-TBP SPR % similarity-CD3 (Human CD3ED, TPP401 [11]) [%] | other results
1 | Mab101 (bispecific antibody, human IgG1, L234A L235A, also called BCMA TCE; BCMA T cell engager) heavy 1: not shown heavy 2: not shown light 1: not shown light 2: EVQLLESGGGLVQPGGSLRLSCAASGFTFSTYAMNWVRQAPGKGLEWVSRIRSKYNNYATYYADSVKGRFTISRDDSKNTLYLQMNSLRAEDTAVYYCVRHGNFGNSYVSWFAYWGQGTLVTVSSASVAAPSVFIFPPSDEQLKSGTASVVCLLNNFYPREAKVQWKVDNALQSGNSQESVTEQDSKDSTYSLSSTLTLSKADYEKHKVYACEVTHQGLSSPVTKSFNRGEC | 1100 | 5.72 | 0.266 | 0.236 | 100 | 99.9 | 100 | 100 | 99.9 | 71.5 | 82.5 | 75.3 | EC50 PB killing (nM), healthy volunteers (n = 2) [3]: 0.257 nM
2 | CC-93269 (bispecific antibody, human IgG1, kappa, L234A L235A, also called 42-TCBcv; BCMA TCE) heavy 1: not shown heavy 2: EVQLLESGGGLVQPGGSLRLSCAASGFTFSDNAMGWVRQAPGKGLEWVSAISGPGSSTYYADSVKGRFTISRDNSKNTLYLQMNSLRAEDTAVYYCAKVLGWFDYWGQGTLVTVSSASTKGPSVFPLAPSSKSTSGGTAALGCLVEDYFPEPVTVSWNSGALTSGVHTFPAVLQSSGLYSLSSVVTVPSSSLGTQTYICNVNHKPSNTKVDEKVEPKSCDKTHTCPPCPAPEAAGGPSVFLFPPKPKDTLMISRTPEVTCVVVDVSHEDPEVKFNWYVDGVEVHNAKTKPREEQYNSTYRVVSVLTVLHQDWLNGKEYKCKVSNKALGAPIEKTISKAKGQPREPQVCTLPPSRDELTKNQVSLSCAVKGFYPSDIAVEWESNGQPENNYKTTPPVLDSDGSFFLVSKLTVDKSRWQQGNVFSCSVMHEALHNHYTQKSLSLSPGK light 1: EIVLTQSPGTLSLSPGERATLSCRASQSVSDEYLSWYQQKPGQAPRLLIHSASTRATGIPDRFSGSGSGTDFTLAISRLEPEDFAVYYCQQYGYPPDFTFGQGTKVEIKRTVAAPSVFIFPPSDRKLKSGTASVVCLLNNFYPREAKVQWKVDNALQSGNSQESVTEQDSKDSTYSLSSTLTLSKADYEKHKVYACEVTHQGLSSPVTKSFNRGEC light 2: EVQLLESGGGLVQPGGSLRLSCAASGFTFSTYAMNWVRQAPGKGLEWVSRIRSKYNNYATYYADSVKGRFTISRDDSKNTLYLQMNSLRAEDTAVYYCVRHGNFGNSYVSWFAYWGQGTLVTVSSASVAAPSVFIFPPSDEQLKSGTASVVCLLNNFYPREAKVQWKVDNALQSGNSQESVTEQDSKDSTYSLSSTLTLSKADYEKHKVYACEVTHQGLSSPVTKSFNRGEC | 140 | 2.79 | 0.0201 | 0.01 |  |  |  |  |  |  |  |  | EC50 for plasmablast killing in AAV, PBMC, 24 h [12]: 7 pM; EC50 for plasmablast killing in RA, PBMC, 24 h [12]: 1 pM; EC50 for plasmablast killing in SLE (n=5), PBMC, 24 h [12]: 10 pM; EC50 for plasmablast killing in healthy volunteers (n=12), PBMC, 24 h [12]: 5 pM; EC50 PB killing (nM), healthy volunteers (n = 6) [3]: 0.029 nM; Plasmablast depletion EC50 (nM), PBMC from healthy volunteers, soluble BCMA 0 ng/ml [13]: 0.005 nM; Plasmablast depletion EC50 (nM), PBMC from healthy volunteers, soluble BCMA 16.8 ng/ml [13]: 0.025 nM; Plasmablast depletion EC50 (nM), PBMC from healthy volunteers, soluble BCMA 33.6 ng/ml [13]: 0.13 nM; Plasmablast depletion EC50 (nM), PBMC from healthy volunteers, soluble BCMA 67.6 ng/ml [13]: 0.32 nM
3 | 83A10-TCBcv (bispecific antibody, human IgG1, kappa, L234A L235A) heavy 1: not shown heavy 2: not shown light 1: not shown light 2: EVQLLESGGGLVQPGGSLRLSCAASGFTFSTYAMNWVRQAPGKGLEWVSRIRSKYNNYATYYADSVKGRFTISRDDSKNTLYLQMNSLRAEDTAVYYCVRHGNFGNSYVSWFAYWGQGTLVTVSSASVAAPSVFIFPPSDEQLKSGTASVVCLLNNFYPREAKVQWKVDNALQSGNSQESVTEQDSKDSTYSLSSTLTLSKADYEKHKVYACEVTHQGLSSPVTKSFNRGEC |  |  |  |  | 99.4 | 100 | 100 | 99.9 | 90.8 | 57.5 | 72 | 59.7 | 
4 | 22-TCBcv (bispecific antibody, human IgG1, kappa, L234A L235A) heavy 1: not shown heavy 2: EVQLLESGGGLVQPGGSLRLSCAASGFTFSDNAMGWVRQAPGKGLEWVSAISGPGSSTYYADSVKGRFTISRDNSKNTLYLQMNSLRAEDTAVYYCAKVLGWFDYWGQGTLVTVSSASTKGPSVFPLAPSSKSTSGGTAALGCLVEDYFPEPVTVSWNSGALTSGVHTFPAVLQSSGLYSLSSVVTVPSSSLGTQTYICNVNHKPSNTKVDEKVEPKSCDKTHTCPPCPAPEAAGGPSVFLFPPKPKDTLMISRTPEVTCVVVDVSHEDPEVKFNWYVDGVEVHNAKTKPREEQYNSTYRVVSVLTVLHQDWLNGKEYKCKVSNKALGAPIEKTISKAKGQPREPQVCTLPPSRDELTKNQVSLSCAVKGFYPSDIAVEWESNGQPENNYKTTPPVLDSDGSFFLVSKLTVDKSRWQQGNVFSCSVMHEALHNHYTQKSLSLSPGK light 1: EIVLTQSPGTLSLSPGERATLSCRASQSVSSYYLAWYQQKPGQAPRLLISGAGSRATGIPDRFSGSGSGTDFTLTISRLEPEDFAVYYCQQYGYPPDFTFGQGTKVEIKRTVAAPSVFIFPPSDRKLKSGTASVVCLLNNFYPREAKVQWKVDNALQSGNSQESVTEQDSKDSTYSLSSTLTLSKADYEKHKVYACEVTHQGLSSPVTKSFNRGEC light 2: EVQLLESGGGLVQPGGSLRLSCAASGFTFSTYAMNWVRQAPGKGLEWVSRIRSKYNNYATYYADSVKGRFTISRDDSKNTLYLQMNSLRAEDTAVYYCVRHGNFGNSYVSWFAYWGQGTLVTVSSASVAAPSVFIFPPSDEQLKSGTASVVCLLNNFYPREAKVQWKVDNALQSGNSQESVTEQDSKDSTYSLSSTLTLSKADYEKHKVYACEVTHQGLSSPVTKSFNRGEC |  |  |  |  | 84.8 | 99.6 | 99.8 | 99.5 | 95.8 | 59.5 | 71.9 | 58.5 | 
